{
  "source": "paper PMC10397247",
  "assay_in_all_cases": "two-hybrid library CCmax;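 further: natural log of median RNA to DNA barcode read ratio; higher means stronger binding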",
  "key": {"[1]": {"biological_target": "T1, 4H3446-AA", "T1 chain": "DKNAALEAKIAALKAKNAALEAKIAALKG", "details": "mean of both orientations"}, "[2]": {"biological_target": "T2, 4H3066-AA", "T2 chain": "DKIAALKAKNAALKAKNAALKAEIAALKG", "details": "mean of both orientations"}, "[3]": {"biological_target": "T3, 4H3920-AA", "T3 chain": "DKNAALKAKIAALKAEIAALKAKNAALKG", "details": "mean of both orientations"}, "[4]": {"biological_target": "T4, 4H3666-AA", "T4 chain": "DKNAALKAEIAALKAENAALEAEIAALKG", "details": "mean of both orientations"}, "[5]": {"biological_target": "T5, 4H971-AA", "T5 chain": "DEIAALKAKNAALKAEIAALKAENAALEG", "details": "mean of both orientations"}, "[6]": {"biological_target": "T6, 4H3417-AA", "T6 chain": "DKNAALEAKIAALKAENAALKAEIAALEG", "details": "mean of both orientations"}, "[7]": {"biological_target": "T7, 4H3709-AA", "T7 chain": "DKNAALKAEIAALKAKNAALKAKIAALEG", "details": "mean of both orientations"}, "[8]": {"biological_target": "T8, 4H3121-AA", "T8 chain": "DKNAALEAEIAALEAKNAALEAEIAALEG", "details": "mean of both orientations"}, "[9]": {"biological_target": "T9, 4H3591-AA", "T9 chain": "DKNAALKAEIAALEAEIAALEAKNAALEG", "details": "mean of both orientations"}, "[10]": {"biological_target": "T10, 4H2948-AA", "T10 chain": "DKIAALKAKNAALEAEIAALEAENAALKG"}, "[11]": {"biological_target": "T11, 4H391-AA", "T11 chain": "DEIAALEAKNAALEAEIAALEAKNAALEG"}, "[12]": {"biological_target": "T12, 4H2991-AA", "T12 chain": "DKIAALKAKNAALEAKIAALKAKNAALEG", "details": "mean of both orientations"}, "[13]": {"biological_target": "T13, 4H675-AA", "T13 chain": "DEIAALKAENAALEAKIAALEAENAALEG", "details": "mean of both orientations"}, "[14]": {"biological_target": "T14, 4H428-AA", "T14 chain": "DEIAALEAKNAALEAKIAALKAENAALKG", "details": "mean of both orientations"}, "[15]": {"biological_target": "T15, 4H3628-AA", "T15 chain": "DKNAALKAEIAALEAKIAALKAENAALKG", "details": "mean of both orientations"}, "[16]": {"biological_target": "T16, 4H3029-AA", "T16 chain": "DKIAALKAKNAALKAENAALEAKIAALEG", "details": "mean of both orientations"}, "[17]": {"biological_target": "T17, 4H3939-AA", "T17 chain": "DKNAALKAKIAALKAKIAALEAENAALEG", "details": "mean of both orientations"}, "[18]": {"biological_target": "T18, 4H656-AA", "T18 chain": "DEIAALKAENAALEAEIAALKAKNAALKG", "details": "mean of both orientations"}, "[19]": {"biological_target": "T19, 4H3102-AA", "T19 chain": "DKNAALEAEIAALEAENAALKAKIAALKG", "details": "mean of both orientations"}, "[20]": {"biological_target": "T20, 4H497-AA", "T20 chain": "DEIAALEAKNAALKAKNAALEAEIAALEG", "details": "mean of both orientations"}, "[21]": {"biological_target": "T21, 4H478-AA", "T21 chain": "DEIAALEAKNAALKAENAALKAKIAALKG", "details": "mean of both orientations"}},
  "data": [
    {"binder": "DKIAALKAKNAALEAEIAALEAENAALKG", "note": "[4H2948-AA]", "values": [
      {"measurement": "interaction score", "setting": "[1]", "value": -0.524},
      {"measurement": "interaction score", "setting": "[2]", "value": -1.57},
      {"measurement": "interaction score", "setting": "[3]", "value": -1.35},
      {"measurement": "interaction score", "setting": "[4]", "value": -1.69},
      {"measurement": "interaction score", "setting": "[5]", "value": -0.608},
      {"measurement": "interaction score", "setting": "[6]", "value": 0.478},
      {"measurement": "interaction score", "setting": "[7]", "value": -1.17},
      {"measurement": "interaction score", "setting": "[8]", "value": -1.15},
      {"measurement": "interaction score", "setting": "[9]", "value": -1.3},
      {"measurement": "interaction score", "setting": "[10]", "value": -0.0114},
      {"measurement": "interaction score", "setting": "[11]", "value": -1.39},
      {"measurement": "interaction score", "setting": "[12]", "value": -0.169},
      {"measurement": "interaction score", "setting": "[13]", "value": -0.414},
      {"measurement": "interaction score", "setting": "[14]", "value": 1.95},
      {"measurement": "interaction score", "setting": "[15]", "value": -0.855},
      {"measurement": "interaction score", "setting": "[16]", "value": -1.4},
      {"measurement": "interaction score", "setting": "[17]", "value": -1.77},
      {"measurement": "interaction score", "setting": "[18]", "value": 0.924},
      {"measurement": "interaction score", "setting": "[19]", "value": 0.56},
      {"measurement": "interaction score", "setting": "[20]", "value": -1.54},
      {"measurement": "interaction score", "setting": "[21]", "value": -1.62}
    ]}
  ]
}
